In patent US20200040086A1 (BERLIN CHEMIE, published 2020):

Columns and labels:
RHFVSLCQ = target: T1, RHFVSLCQ; assay: peptide microarray of 8mer LY75 peptides
T1 construct: 8mer of LY75 on the peptide microarray, chart Region 6
T1 peptide: RHFVSLCQ

SLCQKYSE = target: T2, SLCQKYSE; assay: peptide microarray of 8mer LY75 peptides
T2 construct: 8mer of LY75 on the peptide microarray, chart Region 6
T2 peptide: SLCQKYSE

LCQKYSEV = target: T3, LCQKYSEV; assay: peptide microarray of 8mer LY75 peptides
T3 construct: 8mer of LY75 on the peptide microarray, chart Region 6
T3 peptide: LCQKYSEV

CQKYSEVK = target: T4, CQKYSEVK; assay: peptide microarray of 8mer LY75 peptides
T4 construct: 8mer of LY75 on the peptide microarray, chart Region 6
T4 peptide: CQKYSEVK

QKYSEVKS = target: T5, QKYSEVKS; assay: peptide microarray of 8mer LY75 peptides
T5 construct: 8mer of LY75 on the peptide microarray, chart Region 6
T5 peptide: QKYSEVKS

NLYKIIPK = target: T6, NLYKIIPK; assay: peptide microarray of 8mer LY75 peptides
T6 construct: 8mer of LY75 on the peptide microarray, chart Region 7
T6 peptide: NLYKIIPK

KIIPKTLT = target: T7, KIIPKTLT; assay: peptide microarray of 8mer LY75 peptides
T7 construct: 8mer of LY75 on the peptide microarray, chart Region 7
T7 peptide: KIIPKTLT

IIPKTLTW = target: T8, IIPKTLTW; assay: peptide microarray of 8mer LY75 peptides
T8 construct: 8mer of LY75 on the peptide microarray, chart Region 7
T8 peptide: IIPKTLTW

PKTLTWHS = target: T9, PKTLTWHS; assay: peptide microarray of 8mer LY75 peptides
T9 construct: 8mer of LY75 on the peptide microarray, chart Region 7
T9 peptide: PKTLTWHS

KTLTWHSA = target: T10, KTLTWHSA; assay: peptide microarray of 8mer LY75 peptides
T10 construct: 8mer of LY75 on the peptide microarray, chart Region 7
T10 peptide: KTLTWHSA

WIQYKGHC = target: T11, WIQYKGHC; assay: peptide microarray of 8mer LY75 peptides
T11 construct: 8mer of LY75 on the peptide microarray, chart Region 10
T11 peptide: WIQYKGHC

[1] = target: Contiguous 8mer peptides of LY75 protein spanning residues 216 to 1666 of the full length LY75 protein; assay: peptide microarray, 1 ug/mL LY75_A1, anti-human IgG Alexa 647
[2] = target: T12, LY75 Region 4 (aa883-901) (human); assay: peptide microarray; signal above the cut off of 3000
T12 construct: Region made up of overlapping 8mers on the array
T12 peptide: DDHFTYSRYPWHRFPVTFG

[3] = target: T13, LY75 Region 5 (aa1029-1040) (human); assay: as above
T13 construct: Region made up of overlapping 8mers on the array
T13 peptide: RELTYSNFHPLL

[4] = target: T14, LY75 Region 6 (aa1077-1093) (human); assay: as above
T14 construct: Region made up of overlapping 8mers on the array
T14 peptide: FTSCSERHFVSLCQKYS

[5] = target: T15, LY75 Region 7 (aa1107-1118) (human); assay: as above
T15 construct: Region made up of overlapping 8mers on the array
T15 peptide: TVKYLNNLYKII

[6] = target: T16, LY75 Region 3 (aa761-780) (human); assay: as above
T16 construct: Region made up of overlapping 8mers on the array
T16 peptide: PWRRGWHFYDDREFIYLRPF

[7] = target: Contiguous 8mer peptides of LY75 protein spanning residues 216 to 1666 of the full length LY75 protein; assay: peptide microarray, 1 ug/mL LY75_A1, anti-human IgG Alexa 647; the peptide is not named
EVKDCRSF = target: T17, EVKDCRSF; assay: peptide microarray of 8mer LY75 peptides, LY75_A1 at 1 µg/mL, anti-human IgG Alexa 647
T17 construct: 8mer of LY75 on the peptide microarray, chart Region 1
T17 peptide: EVKDCRSF
Method: (§1) The peptide microarray analysis was performed by LC Sciences, Houston Tex., in brief the method comprised the following steps:—Contiguous 8mer peptides of LY75 protein having […] spanning residues 216 to 1666 of the full length LY75 protein were synthesized and immobilized on a microarray chip. The chip comprised three panels such that the experiment was performed in triplicate. The microarray was addressed with LY75_A1 to identify the peptides to which the antibody bound. The binding assay was performed under the following conditions:—
(§2) The microarray comprising the contiguous peptides in triplicate was washed with 1 mL of binding buffer at 4° C. for 20 min. It was then incubated with 1 μg/mL LY75_A1 in binding buffer (pH 7.0) at 4° C. for 2 hrs. The array was again washed with 0.5 mL of washing buffer at 4° C. for 30 min then incubated with 25 ng/mL anti-human IgG Alexa 647 conjugate in binding buffer (pH 7.0) at 4° C. for 1 hr. The array was again washed with 0.5 mL of washing buffer at 4° C. for 30 min.

EFIYLRPF = target: T18, EFIYLRPF; assay: as above
T18 construct: 8mer of LY75 on the peptide microarray, chart Region 3
T18 peptide: EFIYLRPF
Method: as §1, §2

RYPWHRFP = target: T19, RYPWHRFP; assay: as above
T19 construct: 8mer of LY75 on the peptide microarray, chart Region 4
T19 peptide: RYPWHRFP
Method: as §1, §2

LTYSNFHP = target: T20, LTYSNFHP; assay: as above
T20 construct: 8mer of LY75 on the peptide microarray, chart Region 5
T20 peptide: LTYSNFHP
Method: as §1, §2

SERHFVSL = target: T21, SERHFVSL; assay: as above
T21 construct: 8mer of LY75 on the peptide microarray, chart Region 6
T21 peptide: SERHFVSL
Method: as §1, §2

VKYLNNLY = target: T22, VKYLNNLY; assay: as above
T22 construct: 8mer of LY75 on the peptide microarray, chart Region 7
T22 peptide: VKYLNNLY
Method: as §1, §2

LNNLYKII = target: T23, LNNLYKII; assay: as above
T23 construct: 8mer of LY75 on the peptide microarray, chart Region 7
T23 peptide: LNNLYKII
Method: as §1, §2

SLSCYKVF = target: T24, SLSCYKVF; assay: as above
T24 construct: 8mer of LY75 on the peptide microarray, chart Region 2
T24 peptide: SLSCYKVF
Method: as §1, §2

[8] = target: T25, LY75 tryptic peptide GWHFYDDR (765-772) (human); assay: peptide microarray of 8mer LY75 peptides (array peptide with the letters of m17), LY75_A1 at 1 µg/mL, anti-human IgG Alexa 647
T25 construct: Tryptic peptide of recombinant LY75 identified by mass spectrometry after pull down
T25 peptide: GWHFYDDR
Method: as §1, §2

B1: LY75_A1 (antibody, V domains shown)
VH: EVQLVESGGGLVKPGGSLRLSCAASGFTYSNAWMSWVRQAPGKGLEWVGRIKSKTDGGTTDYAAPVQGRFTISRDDSKNTLYLQMNSLKTEDTAVYYCTIFGVVSFDYWGQGTLVTVSS
VL: DVQMTQSPSSLSASVGDRVTITCRASQSISDYLSWYQQRPGKAPNLLIYAASNLKTGVPSRFSGSGSGTDFTLTISTLQPEDFATYYCQQSYRSPWTFGQGTKVEIKR
notes: detected with anti-human IgG in the microarray; also called antibody LY75_A1; LY75_A1 monoclonal antibody
Does B1 bind (RHFVSLCQ)?
Result: no binding (tested: 1 µg/mL)

Does B1 bind (SLCQKYSE)?
Result: no binding (tested: 1 µg/mL)

Does B1 bind (LCQKYSEV)?
Result: no binding (tested: 1 µg/mL)

Does B1 bind (CQKYSEVK)?
Result: no binding (tested: 1 µg/mL)

Does B1 bind (QKYSEVKS)?
Result: no binding (tested: 1 µg/mL)

Does B1 bind (NLYKIIPK)?
Result: no binding (tested: 1 µg/mL)

Does B1 bind (KIIPKTLT)?
Result: no binding (tested: 1 µg/mL)

Does B1 bind (IIPKTLTW)?
Result: no binding (tested: 1 µg/mL)

Does B1 bind (PKTLTWHS)?
Result: no binding (tested: 1 µg/mL)

Does B1 bind (KTLTWHSA)?
Result: no binding (tested: 1 µg/mL)

Does B1 bind (WIQYKGHC)?
Result: no binding (tested: 1 µg/mL)

What about the average signal for all spots on the array (signal intensity (scale 1-65535)) [1] of the same binder?
The average signal for all spots on the array (signal intensity (scale 1-65535)) was 885.

Does B1 bind [2]?
Result: binds

Does B1 bind [3]?
Result: binds

Does B1 bind [4]?
Result: binds

Does B1 bind [5]?
Result: binds

Does B1 bind [6]?
Result: binds

And the maximum signal (signal intensity (scale 1-65535)) [7]?
Its maximum signal (signal intensity (scale 1-65535)) is 25000.

Does B1 bind (EVKDCRSF)?
Result: binds

Does B1 bind (EFIYLRPF)?
Result: binds

Does B1 bind (RYPWHRFP)?
Result: binds

Does B1 bind (LTYSNFHP)?
Result: binds

Does B1 bind (SERHFVSL)?
Result: binds

Does B1 bind (VKYLNNLY)?
Result: binds

Does B1 bind (LNNLYKII)?
Result: binds

Does B1 bind (SLSCYKVF)?
Result: binds

Does B1 bind [8]?
Result: binds
